Experimental data from IntAct's records for PubMed 23064147.

B1: Spindle assembly abnormal protein 6 (Caenorhabditis elegans), O62479 (parent)
chain: MTSKIALFDQTLIASLLQPLSLNQPDFKAYKTKVKLKISEQRNETSGEKELKFEISRSDDFEFLFSETLNNEKYQILARDHDLTVDFDAFPKVIIQHLLCKNIVKNLEEDGEVDARKKAGYHSIADPGKPTEINIILDAEKNFCSFELFSKTPISKGKIFSIKLHAVRGDHLISHLLKICSSQAVKLSTFYKSADELASLRQKCGDLEKQVEKLSGVKEEFEEMSEKFKELEDEVELVKEERENIRLLVEDKEDEVADLKQDTESLQKQLEENQEELEIVGNMLREEQGKVDQLQKRNVAHQKEIGKLRAELGTAQRNLEKADQLLKRNSQQQNQQSLDMRKLGELEADLKEKDSMVESLTETIGILRKELENEKLKAAENMDSFEKLSMENENLKEKIAHYRAQRFSPAPSGLPGLQTGLTNRLTPSFKPVLGPHTPYGANLNSRTPFRDNTTLNFQNSTIATPHAFRFNSQLIADETTGSSVTNTPPAQR
partner: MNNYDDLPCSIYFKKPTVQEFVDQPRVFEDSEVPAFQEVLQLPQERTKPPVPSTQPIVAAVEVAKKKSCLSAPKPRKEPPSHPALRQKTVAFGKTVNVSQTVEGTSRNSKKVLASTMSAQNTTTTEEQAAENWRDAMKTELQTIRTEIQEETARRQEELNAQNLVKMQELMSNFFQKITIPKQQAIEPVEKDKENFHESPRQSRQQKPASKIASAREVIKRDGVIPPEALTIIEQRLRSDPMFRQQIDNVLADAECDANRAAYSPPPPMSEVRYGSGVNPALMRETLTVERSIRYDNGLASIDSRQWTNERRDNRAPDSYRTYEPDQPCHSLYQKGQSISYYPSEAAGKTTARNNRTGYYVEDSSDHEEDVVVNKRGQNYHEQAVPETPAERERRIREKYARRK

Variants of: B1
Conditions: with sas5_caeel sas-5, Q20010

| effect of a mutation on the interaction | Variant |
| --- | --- |
| decreasing interaction | MTSKIALFDQTLIASLLQPLSLNQPDFKAYKTKVKLKISEQRNETSGEKELKFEISRSDDFEFLFSETLNNEKYQILARDHDLTVDFDAFPKVIIQHLLCKNIVKNLEEDGEVDARKKAGYHSIADPGKPTEINIILDAEKNFCSFELFSKTPISKGKIFSIKLHAVRGDHLISHLLKICSSQAVKLSTFYKSADELASLRQKCGDLEKQVEKLSGVKEEFEEMSEKFKELEDEVELVKEERENIRLLVEDKEDEVADLKQDTESLQKQLEENQEALEIVGNMLREEQGKVDQLQKRNVAHQKEIGKLRAELGTAQRNLEKADQLLKRNSQQQNQQSLDMRKLGELEADLKEKDSMVESLTETIGILRKELENEKLKAAENMDSFEKLSMENENLKEKIAHYRAQRFSPAPSGLPGLQTGLTNRLTPSFKPVLGPHTPYGANLNSRTPFRDNTTLNFQNSTIATPHAFRFNSQLIADETTGSSVTNTPPAQR [E276A] |
| decreasing interaction | MTSKIALFDQTLIASLLQPLSLNQPDFKAYKTKVKLKISEQRNETSGEKELKFEISRSDDFEFLFSETLNNEKYQILARDHDLTVDFDAFPKVIIQHLLCKNIVKNLEEDGEVDARKKAGYHSIADPGKPTEINIILDAEKNFCSFELFSKTPISKGKIFSIKLHAVRGDHLISHLLKICSSQAVKLSTFYKSADELASLRQKCGDLEKQVEKLSGVKEEFEEMSEKFKELEDEVELVKEERENIRLLVEDKEDEVADLKQDTESLQKQLEENQEELAIVGNMLREEQGKVDQLQKRNVAHQKEIGKLRAELGTAQRNLEKADQLLKRNSQQQNQQSLDMRKLGELEADLKEKDSMVESLTETIGILRKELENEKLKAAENMDSFEKLSMENENLKEKIAHYRAQRFSPAPSGLPGLQTGLTNRLTPSFKPVLGPHTPYGANLNSRTPFRDNTTLNFQNSTIATPHAFRFNSQLIADETTGSSVTNTPPAQR [E278A] |
| decreasing interaction | MTSKIALFDQTLIASLLQPLSLNQPDFKAYKTKVKLKISEQRNETSGEKELKFEISRSDDFEFLFSETLNNEKYQILARDHDLTVDFDAFPKVIIQHLLCKNIVKNLEEDGEVDARKKAGYHSIADPGKPTEINIILDAEKNFCSFELFSKTPISKGKIFSIKLHAVRGDHLISHLLKICSSQAVKLSTFYKSADELASLRQKCGDLEKQVEKLSGVKEEFEEMSEKFKELEDEVELVKEERENIRLLVEDKEDEVADLKQDTESLQKQLEENQAELEIVGNMLREEQGKVDQLQKRNVAHQKEIGKLRAELGTAQRNLEKADQLLKRNSQQQNQQSLDMRKLGELEADLKEKDSMVESLTETIGILRKELENEKLKAAENMDSFEKLSMENENLKEKIAHYRAQRFSPAPSGLPGLQTGLTNRLTPSFKPVLGPHTPYGANLNSRTPFRDNTTLNFQNSTIATPHAFRFNSQLIADETTGSSVTNTPPAQR [E275A] |

Variants of: B1
Conditions: with sas5_caeel sas-5, Q20010
Remark: another data set of the same source

| effect of a mutation on the interaction | Variant |
| --- | --- |
| disrupting interaction | MTSKIALFDQTLIASLLQPLSLNQPDFKAYKTKVKLKISEQRNETSGEKELKFEISRSDDFEFLFSETLNNEKYQILARDHDLTVDFDAFPKVIIQHLLCKNIVKNLEEDGEVDARKKAGYHSIADPGKPTEINIILDAEKNFCSFELFSKTPISKGKIFSIKLHAVRGDHLISHLLKICSSQAVKLSTFYKSADELASLRQKCGDLEKQVEKLSGVKEEFEEMSEKFKELEDEVELVKEERENIRLLVEDKEDEVADLKQDTESLQKQLEENQEALEIVGNMLREEQGKVDQLQKRNVAHQKEIGKLRAELGTAQRNLEKADQLLKRNSQQQNQQSLDMRKLGELEADLKEKDSMVESLTETIGILRKELENEKLKAAENMDSFEKLSMENENLKEKIAHYRAQRFSPAPSGLPGLQTGLTNRLTPSFKPVLGPHTPYGANLNSRTPFRDNTTLNFQNSTIATPHAFRFNSQLIADETTGSSVTNTPPAQR [E276A] |
| disrupting interaction | MTSKIALFDQTLIASLLQPLSLNQPDFKAYKTKVKLKISEQRNETSGEKELKFEISRSDDFEFLFSETLNNEKYQILARDHDLTVDFDAFPKVIIQHLLCKNIVKNLEEDGEVDARKKAGYHSIADPGKPTEINIILDAEKNFCSFELFSKTPISKGKIFSIKLHAVRGDHLISHLLKICSSQAVKLSTFYKSADELASLRQKCGDLEKQVEKLSGVKEEFEEMSEKFKELEDEVELVKEERENIRLLVEDKEDEVADLKQDTESLQKQLEENQEELAIVGNMLREEQGKVDQLQKRNVAHQKEIGKLRAELGTAQRNLEKADQLLKRNSQQQNQQSLDMRKLGELEADLKEKDSMVESLTETIGILRKELENEKLKAAENMDSFEKLSMENENLKEKIAHYRAQRFSPAPSGLPGLQTGLTNRLTPSFKPVLGPHTPYGANLNSRTPFRDNTTLNFQNSTIATPHAFRFNSQLIADETTGSSVTNTPPAQR [E278A] |
| disrupting interaction | MTSKIALFDQTLIASLLQPLSLNQPDFKAYKTKVKLKISEQRNETSGEKELKFEISRSDDFEFLFSETLNNEKYQILARDHDLTVDFDAFPKVIIQHLLCKNIVKNLEEDGEVDARKKAGYHSIADPGKPTEINIILDAEKNFCSFELFSKTPISKGKIFSIKLHAVRGDHLISHLLKICSSQAVKLSTFYKSADELASLRQKCGDLEKQVEKLSGVKEEFEEMSEKFKELEDEVELVKEERENIRLLVEDKEDEVADLKQDTESLQKQLEENQAELEIVGNMLREEQGKVDQLQKRNVAHQKEIGKLRAELGTAQRNLEKADQLLKRNSQQQNQQSLDMRKLGELEADLKEKDSMVESLTETIGILRKELENEKLKAAENMDSFEKLSMENENLKEKIAHYRAQRFSPAPSGLPGLQTGLTNRLTPSFKPVLGPHTPYGANLNSRTPFRDNTTLNFQNSTIATPHAFRFNSQLIADETTGSSVTNTPPAQR [E275A] |

Variants of: B1
Conditions: with sas5_caeel sas-5, Q20010
Remark: another data set of the same source

| effect of a mutation on the interaction | Variant |
| --- | --- |
| decreasing interaction | MTSKIALFDQTLIASLLQPLSLNQPDFKAYKTKVKLKISEQRNETSGEKELKFEISRSDDFEFLFSETLNNEKYQILARDHDLTVDFDAFPKVIIQHLLCKNIVKNLEEDGEVDARKKAGYHSIADPGKPTEINIILDAEKNFCSFELFSKTPISKGKIFSIKLHAVRGDHLISHLLKICSSQAVKLSTFYKSADELASLRQKCGDLEKQVEKLSGVKEEFEEMSEKFKELEDEVELVKEERENIRLLVEDKEDEVADLKQDTESLQKQLEENQEELEIVGNMLREAQGKVDQLQKRNVAHQKEIGKLRAELGTAQRNLEKADQLLKRNSQQQNQQSLDMRKLGELEADLKEKDSMVESLTETIGILRKELENEKLKAAENMDSFEKLSMENENLKEKIAHYRAQRFSPAPSGLPGLQTGLTNRLTPSFKPVLGPHTPYGANLNSRTPFRDNTTLNFQNSTIATPHAFRFNSQLIADETTGSSVTNTPPAQR [E287A] |

Variants of: B1
Conditions: with sas5_caeel sas-5, Q20010
Remark: another data set of the same source

| effect of a mutation on the interaction | Variant |
| --- | --- |
| decreasing interaction | MTSKIALFDQTLIASLLQPLSLNQPDFKAYKTKVKLKISEQRNETSGEKELKFEISRSDDFEFLFSETLNNEKYQILARDHDLTVDFDAFPKVIIQHLLCKNIVKNLEEDGEVDARKKAGYHSIADPGKPTEINIILDAEKNFCSFELFSKTPISKGKIFSIKLHAVRGDHLISHLLKICSSQAVKLSTFYKSADELASLRQKCGDLEKQVEKLSGVKEEFEEMSEKFKELEDEVELVKEERENIRLLVEDKEDEVADLKQDTESLQKQLEENQEELEAVGNMLREEQGKVDQLQKRNVAHQKEIGKLRAELGTAQRNLEKADQLLKRNSQQQNQQSLDMRKLGELEADLKEKDSMVESLTETIGILRKELENEKLKAAENMDSFEKLSMENENLKEKIAHYRAQRFSPAPSGLPGLQTGLTNRLTPSFKPVLGPHTPYGANLNSRTPFRDNTTLNFQNSTIATPHAFRFNSQLIADETTGSSVTNTPPAQR [I279A] |
| decreasing interaction | MTSKIALFDQTLIASLLQPLSLNQPDFKAYKTKVKLKISEQRNETSGEKELKFEISRSDDFEFLFSETLNNEKYQILARDHDLTVDFDAFPKVIIQHLLCKNIVKNLEEDGEVDARKKAGYHSIADPGKPTEINIILDAEKNFCSFELFSKTPISKGKIFSIKLHAVRGDHLISHLLKICSSQAVKLSTFYKSADELASLRQKCGDLEKQVEKLSGVKEEFEEMSEKFKELEDEVELVKEERENIRLLVEDKEDEVADLKQDTESLQKQLEENQEELEIVGNALREEQGKVDQLQKRNVAHQKEIGKLRAELGTAQRNLEKADQLLKRNSQQQNQQSLDMRKLGELEADLKEKDSMVESLTETIGILRKELENEKLKAAENMDSFEKLSMENENLKEKIAHYRAQRFSPAPSGLPGLQTGLTNRLTPSFKPVLGPHTPYGANLNSRTPFRDNTTLNFQNSTIATPHAFRFNSQLIADETTGSSVTNTPPAQR [M283A] |

Variants of: B1
Conditions: with sas5_caeel sas-5, Q20010
Remark: another data set of the same source

| effect of a mutation on the interaction | Variant |
| --- | --- |
| disrupting interaction | MTSKIALFDQTLIASLLQPLSLNQPDFKAYKTKVKLKISEQRNETSGEKELKFEISRSDDFEFLFSETLNNEKYQILARDHDLTVDFDAFPKVIIQHLLCKNIVKNLEEDGEVDARKKAGYHSIADPGKPTEINIILDAEKNFCSFELFSKTPISKGKIFSIKLHAVRGDHLISHLLKICSSQAVKLSTFYKSADELASLRQKCGDLEKQVEKLSGVKEEFEEMSEKFKELEDEVELVKEERENIRLLVEDKEDEVADLKQDTESLQKQLEENQEELEAVGNMLREEQGKVDQLQKRNVAHQKEIGKLRAELGTAQRNLEKADQLLKRNSQQQNQQSLDMRKLGELEADLKEKDSMVESLTETIGILRKELENEKLKAAENMDSFEKLSMENENLKEKIAHYRAQRFSPAPSGLPGLQTGLTNRLTPSFKPVLGPHTPYGANLNSRTPFRDNTTLNFQNSTIATPHAFRFNSQLIADETTGSSVTNTPPAQR [I279A] |
| disrupting interaction | MTSKIALFDQTLIASLLQPLSLNQPDFKAYKTKVKLKISEQRNETSGEKELKFEISRSDDFEFLFSETLNNEKYQILARDHDLTVDFDAFPKVIIQHLLCKNIVKNLEEDGEVDARKKAGYHSIADPGKPTEINIILDAEKNFCSFELFSKTPISKGKIFSIKLHAVRGDHLISHLLKICSSQAVKLSTFYKSADELASLRQKCGDLEKQVEKLSGVKEEFEEMSEKFKELEDEVELVKEERENIRLLVEDKEDEVADLKQDTESLQKQLEENQEELEIVGNALREEQGKVDQLQKRNVAHQKEIGKLRAELGTAQRNLEKADQLLKRNSQQQNQQSLDMRKLGELEADLKEKDSMVESLTETIGILRKELENEKLKAAENMDSFEKLSMENENLKEKIAHYRAQRFSPAPSGLPGLQTGLTNRLTPSFKPVLGPHTPYGANLNSRTPFRDNTTLNFQNSTIATPHAFRFNSQLIADETTGSSVTNTPPAQR [M283A] |

Variants of: B1
Conditions: with sas5_caeel sas-5, Q20010
Remark: another data set of the same source

| effect of a mutation on the interaction | Variant |
| --- | --- |
| decreasing interaction | MTSKIALFDQTLIASLLQPLSLNQPDFKAYKTKVKLKISEQRNETSGEKELKFEISRSDDFEFLFSETLNNEKYQILARDHDLTVDFDAFPKVIIQHLLCKNIVKNLEEDGEVDARKKAGYHSIADPGKPTEINIILDAEKNFCSFELFSKTPISKGKIFSIKLHAVRGDHLISHLLKICSSQAVKLSTFYKSADELASLRQKCGDLEKQVEKLSGVKEEFEEMSEKFKELEDEVELVKEERENIRLLVEDKEDEVADLKQDTESLQKQLEENQEELEIVGNMLRAEQGKVDQLQKRNVAHQKEIGKLRAELGTAQRNLEKADQLLKRNSQQQNQQSLDMRKLGELEADLKEKDSMVESLTETIGILRKELENEKLKAAENMDSFEKLSMENENLKEKIAHYRAQRFSPAPSGLPGLQTGLTNRLTPSFKPVLGPHTPYGANLNSRTPFRDNTTLNFQNSTIATPHAFRFNSQLIADETTGSSVTNTPPAQR [E286A] |
